Assay [1] deals with SARS-CoV-2 Omicron (B.1.1.529) spike protein RBD, His-tagged (SARS-CoV-2 Omicron (B.1.1.529)) (UniProt P0DTC2). Nature of the assay: SPR.
Assay [2] has as its target SARS-CoV-2 Delta (B.1.617.2) spike protein RBD, His-tagged (SARS-CoV-2 Delta (B.1.617.2)) (UniProt P0DTC2). Nature of the assay: SPR.

In assay [1], “decavalent IgM ACE2 decoy (from UniProt Q9BYF1;P01591) (Fc fusion)” registered a dissociation constant (Kd) of 2.4 nM, a koff of 0.00036 s⁻¹ and a kon of 150000 M⁻¹ s⁻¹. In assay [2], this substance displayed a Kd of 0.49 nM, a koff of 0.00013 s⁻¹ and a kon of 260000 M⁻¹ s⁻¹.

Values taken from publication PMC10215022.
